Reference: patent US20120102593

Target: histone H4 (rice, extracted from leaves)

B1: histone deacetylase OsHDT1 (protein)
chain: MEFWGLEVKPGQTVKCEPEDERFLHLSQAALGESKKGSDNAVMYVKTDDQKLVIGTLSADKFPQIQFDLVFDKEFELSHTSKTASVFFSGYKVSQPAEEDEMDFDSEEVEDEEEEEKIIPAPRANGKVEGKENEQKKQGKTDSSASKSKAAVNDDDDDDDSAEDDSQDEDLSPEDDDDDSSEDDSSEDDEDESDEEDTPKKPETGKRKVAEIVLKTPSSDKKAKIATPSGQKTGDKKGVHVATPHPAKQASKTPVNDKSKEKSPKSGGGSISCKSCSKTFNSEMALQSHSKAKHPAK
  Western blotting of histone extracted from transgenic and wild-type parent and hybrid OsHDT1 plants, using commercial antibodies against histone modifications: HDT1 was capable of deacetylating histone and as such is a histone deacetylase mainly acting at H4K16 site
